Here are results for two molecules from patent US20180371066A1.

The target in one test is T1, PEP_2875800.
T1 sequence (peptide): DHAGTYGLGDRKDQG
Description: peptide array of 15-mers of human tau probed with the antibody; label LIN.

The target of a further test is T2, PEP_2875802.
T2 sequence (peptide): HAGTYGLGDRKDQGG
Described as above.

A further test addresses T3, PEP_2875828.
T3 sequence (peptide): GGYTMHQDQEGDTDA
The test is described as above.

The target in a further test is T4, PEP_2875830.
T4 sequence (peptide): GYTMHQDQEGDTDAG
The test is described as above.

A further test has as its target T5, PEP_2875801.
T5 sequence (peptide): DHAGTYGLGAAKDQG
The test can be described thus: peptide array of 15-mers of human tau probed with the antibody; label LIN.AA (double alanine).

For another test, the target named is T6, PEP_2875803.
T6 sequence (peptide): HAGTYGLGDAADQGG
The test is described as above.

Another test addresses T7, PEP_2875805.
T7 sequence (peptide): AGTYGLGDRAAQGGY
The description is as above.

Another test concerns the target T8, PEP_2875807.
T8 sequence (peptide): GTYGLGDRKAAGGYT
The description is as above.

For a further test, the target named is T9, PEP_2875813.
T9 sequence (peptide): GLGDRKDQGAATMHQ
The description is as above.

For the next test, the target named is T10, PEP_2875815.
T10 sequence (peptide): LGDRKDQGGAAMHQD
The description is as above.

The target in the next test is T11, PEP_2875829.
T11 sequence (peptide): GGYTMHQDQAADTDA
The test is described as above.

Positions count from the first letter of the chain named. Names and notes keep the numbering of the source.

B1: murine anti-tau antibody HJ8.5 (antibody, V domains shown)
VH: EVKVEESGGGLVQPGGSMKLSCVVSGFTFSNYWVNWVRQSPEKGLEWVAQIRLKSDNYATHYEESVKGRFTISRDDSKSSVYLQMNNLRAEDSGIYYCTNWEDYWGQGTTLTVSS
VL: DIVLTQSPASLAVSLGQRATISCRASQSVSTSRYSYIHWYQQKPGQPPKLLIKYASNLESGVPARFSGSGSGTDFTLNIHPLEEEDAATYYCHHSWEIPLTFGAGTKLELK
On to B1, for which the Binding Signal was found to be 61 with PEP_2875800; 63 in the test with PEP_2875802; 109 with PEP_2875828; 77 in the test with PEP_2875830; 52 with PEP_2875801; 51 with PEP_2875803. The Binding Signal with PEP_2875805 is 58; in the test with PEP_2875807, 110; in the test with PEP_2875813 it was 80; with PEP_2875815 it was 69; in the test with PEP_2875829 it was 106.

B2: VH1/VK2 humanized anti-tau antibody (C2N-8E12) (antibody, human IgG4 S228P, kappa, V domains shown)
VH: B1 VH with E5V, S40A, E42G, L111V
VL: DIVLTQSPDSLAVSLGERATISCRASQSVSTSRYSYIHWYQQKPGQPPKLLIKYASNLESGVPSRFSGSGSGTDFTLNIHPLEPEDFATYYCHHSWEIPLTFGQGTKLEIKR
Turning to B2, the Binding Signal worked out at 78 with PEP_2875800; 65 with PEP_2875802; 110 with PEP_2875828; 97 with PEP_2875830; 90 with PEP_2875801; 65 with PEP_2875803. Moreover, the Binding Signal in the test with PEP_2875805 is 76; with PEP_2875807, 114; in the test with PEP_2875813 it was 65; with PEP_2875815, 99; in the test with PEP_2875829, 118.
